Data from paper PMC9838217, “Structure of SALL4 zinc finger domain reveals link between AT-rich DNA binding and Okihiro syndrome”.

T1: SALL4 ZFC4 I897S (Mus musculus, UniProt Q8BX22 870-940, I897S)
T1 sequence: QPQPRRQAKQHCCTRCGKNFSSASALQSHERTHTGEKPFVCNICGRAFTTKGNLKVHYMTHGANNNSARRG

T2: SALL4 ZFC4 I897S+V925S (Mus musculus, UniProt Q8BX22 870-940, I897S;V925S)
T2 sequence: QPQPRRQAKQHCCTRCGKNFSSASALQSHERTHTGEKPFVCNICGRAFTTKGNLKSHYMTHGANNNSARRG

T3: SALL4 ZFC4 WT (Mus musculus, UniProt Q8BX22 870-940)
T3 sequence: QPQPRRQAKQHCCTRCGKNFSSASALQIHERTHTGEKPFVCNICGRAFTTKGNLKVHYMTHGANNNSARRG

T4: SALL4 ZFC4 R900W (Mus musculus, UniProt Q8BX22 870-940, R900W)
T4 sequence: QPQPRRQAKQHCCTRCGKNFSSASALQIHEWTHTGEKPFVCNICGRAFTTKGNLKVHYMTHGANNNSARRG


Legend:
SALL4 ZFC4 I897S = biological target: T1, SALL4 ZFC4 I897S; experiment: EMSA; EMSA: 20 mM HEPES pH 7.5, 150 mM K acetate, 5 mM Mg acetate, 10 ng/ul poly(dI-dC), 68.1 nM DNA, on ice 30 min, gel at 4 C. HT-SELEX: 10 mM Tris-HCl pH 7.5, 50 m; conditions: protein: recombinant; tags: His6-GST removed with 3C protease; label: DY681
SALL4 ZFC4 I897S+V925S = biological target: T2, SALL4 ZFC4 I897S+V925S; experiment: as above; conditions: protein: recombinant; tags: His6-GST removed with 3C protease; label: DY681
SALL4 ZFC4 WT [1] = biological target: T3, SALL4 ZFC4 WT; experiment: as above; conditions: protein: recombinant; tags: His6-GST removed with 3C protease; GPDS scar at N-terminus; label: DY681
SALL4 ZFC4 R900W = biological target: T4, SALL4 ZFC4 R900W; experiment: as above; conditions: protein: recombinant; tags: His6-GST removed with 3C protease; label: DY681
SALL4 ZFC4 WT [2] = biological target: T3, SALL4 ZFC4 WT; experiment: EMSA; apparent; major groove mutant dataset; poly(dI-dC); EMSA: 68.1 nM DY681-dsDNA, 20 mM HEPES pH 7.5, 150 mM K acetate, 5 mM Mg acetate, 10 ng/ul poly(dI-dC), 30 min on ice; 4% native PAGE, 0.5x TBE, 4 C; conditions: protein: recombinant; tags: His6-GST removed with 3C protease; GPDS scar at N-terminus; label: DY681
SALL4 ZFC4 WT [3] = biological target: T3, SALL4 ZFC4 WT; experiment: EMSA; apparent; patient mutation dataset; poly(dI-dC); EMSA: 68.1 nM DY681-dsDNA, 20 mM HEPES pH 7.5, 150 mM K acetate, 5 mM Mg acetate, 10 ng/ul poly(dI-dC), 30 min on ice; 4% native PAGE, 0.5x TBE, 4 C; conditions: protein: recombinant; tags: His6-GST removed with 3C protease; GPDS scar at N-terminus; label: DY681
SALL4 ZFC4 WT [4] = biological target: T3, SALL4 ZFC4 WT; experiment: X-ray crystallography 2.76 A; Zn2+; 4 ZFC4 and 4 dsDNA per asymmetric unit, unevenly distributed; 50 mM MES pH 6.0, 20% PEG 3350, 60 mM MgCl2; EMSA: 68.1 nM DY681-dsDNA, 20 mM HEPES pH 7.5, 150 mM K acetate, 5 mM Mg acetate, 10 ng/ul poly(dI-dC), 30 min on ice; 4% native PAGE, 0.5x TBE, 4 C; conditions: protein: recombinant; tags: His6-GST removed with 3C protease; GPDS scar at N-terminus; blunt; self-complementary, 2 copies of strand

Binder | Kd (SALL4 ZFC4 I897S) [nM] | Kd (SALL4 ZFC4 I897S+V925S) [nM] | Kd (SALL4 ZFC4 WT [1]) [nM] | Kd (SALL4 ZFC4 R900W) [nM] | Kd (SALL4 ZFC4 WT [2]) [nM] | Kd (SALL4 ZFC4 WT [3]) [nM] | binding result (SALL4 ZFC4 WT [4])
EMSA AT-rich probe (dsDNA) DNA 1: AAAAAATATTAAAAA DNA 2: TTTTTAATATTTTTT | 4800 | 5100 | 615 ± 205 | 23000 | 760 | 472 | –
palindromic AT-rich crystallisation DNA (dsDNA) DNA 1: GATATTAATATC DNA 2: GATATTAATATC | – | – | – | – | – | – | binds
